Like-named read-outs stand apart in the source and are kept apart here.
Experiments:
[1] = molecular target: porcine pseudorabies virus lysate; test: ELISA Test 1, plate coated with viral lysate, antibody diluted 1:4000, Group 1
[2] = molecular target: PRRSV viral lysate (Porcine Reproductive and Respiratory Syndrome Virus); test: as above
[3] = molecular target: porcine coronavirus lysate; test: as above
[4] = molecular target: PRRSV viral lysate (Porcine Reproductive and Respiratory Syndrome Virus); test: ELISA, plate coated with 50.00 ng PRRSV viral lysate, 1 µg antibody
[5] = molecular target: PRRSV viral lysate (Porcine Reproductive and Respiratory Syndrome Virus)
[6] = molecular target: PRRSV viral lysate (Porcine Reproductive and Respiratory Syndrome Virus); test: ELISA, plate coated with 0.78 ng PRRSV viral lysate, 1 µg antibody
[7] = molecular target: PRRSV viral lysate (Porcine Reproductive and Respiratory Syndrome Virus); test: ELISA, plate coated with 6.25 ng PRRSV viral lysate, 1 µg antibody
[8] = molecular target: PRRSV viral lysate (Porcine Reproductive and Respiratory Syndrome Virus); test: ELISA, plate coated with 3.13 ng PRRSV viral lysate, 1 µg antibody
[9] = molecular target: porcine pseudorabies virus lysate; test: ELISA Test 1, plate coated with viral lysate, antibody diluted 1:4000, Group 2
[10] = molecular target: PRRSV viral lysate (Porcine Reproductive and Respiratory Syndrome Virus); test: as above
[11] = molecular target: porcine coronavirus lysate; test: as above
[12] = molecular target: PRRSV viral lysate (Porcine Reproductive and Respiratory Syndrome Virus); test: ELISA, plate coated with 1.56 ng PRRSV viral lysate, 1 µg antibody
[13] = molecular target: PRRSV viral lysate (Porcine Reproductive and Respiratory Syndrome Virus); test: ELISA, plate coated with 25.00 ng PRRSV viral lysate, 1 µg antibody
[14] = molecular target: PRRSV viral lysate (Porcine Reproductive and Respiratory Syndrome Virus); test: ELISA, plate coated with 12.50 ng PRRSV viral lysate, 1 µg antibody
[15] = molecular target: PRRSV viral lysate (Porcine Reproductive and Respiratory Syndrome Virus); test: ELISA Test 2, plate coated with viral lysate, antibody diluted 1:4000
[16] = molecular target: porcine coronavirus lysate; test: as above

B1: anti-PRRSV antibody 142 (antibody, V domains shown)
VH: EVQRVESGPGLVKPSQSLSLTCTVTGYSITNDYAWNWIRQFPGNKLEWMGYISYSGSTSYNPYLKSRISITRDTSKNQFFLQLNSVPTEDTATYYCARSTYGNYGYYYAMDCWGQGTSVTVSS
VL: DIVLTQSPASLAVSLGQRATISCRASESIEYYGTSLMQWYQQKPGQPPKLLIYAASNVESGVPARFSGSGSGTDFSLNIHPVEEDDIAMYFCQQSRKVPTFGGGTKLEIKR
For B1, the OD450 [1] was 0.082 OD450, the OD450 [2] was 0.385 OD450 and the OD450 [3] was 0.148 OD450. It also gave an OD450 [4] of 1.36 OD450, an OD450 [5] of 1.58 OD450 and an OD450 [6] of 0.984 OD450. It also gave an OD450 [7] of 1.16 OD450, an OD450 [8] of 0.959 OD450 and an OD450 [9] of 0.08 OD450. For the same binder, the OD450 [10] was 0.344 OD450, the OD450 [11] was 0.133 OD450 and the OD450 [12] was 1.05 OD450. The OD450 [13] was 1.3 OD450, the OD450 [14] was 1.11 OD450 and the OD450 [15] was 0.411 OD450. It also gave an OD450 [16] of 0.136 OD450.
